Target: T1, CCR4-IL2 bispecific immunotoxin
T1 construct: also called CCR4-IL2 IT; CCR4-IL2 immunotoxin
Assay: flow cytometry, MFI against concentration of biotinylated immunotoxin on CD25+CCR4+ Hut102/6TG cells, nonlinear least squares fit

B1: human CD25 and human CCR4 together on human CD25+CCR4+ T-cell lymphoma cell line Hut 102/6TG (other)
chain 1: ELCDDDPPEIPHATFKAMAYKEGTMLNCECKRGFRRIKSGSLYMLCTGNSSHSSWDNQCQCTSSATRNTTKQVTPQPEEQKERKTTEMQSPMQPVDQASLPGHCREPPPWENEATERIYHFVVGQMVYYQCVQGYRALHRGPAESVCKMTHGKTRWTQPQLICTGEMETSQFPGEEKPQASPEGRPESETSCLVTTTDFQIQTEMAATMETSIFTTEYQVAVAGCVFLLISVLLLSGLTWQRRQRKSRRTI
chain 2: MNPTDIADTTLDESIYSNYYLYESIPKPCTKEGIKAFGELFLPPLYSLVFVFGLLGNSVVVLVLFKYKRLRSMTDVYLLNLAISDLLFVFSLPFWGYYAADQWVFGLGLCKMISWMYLVGFYSGIFFVMLMSIDRYLAIVHAVFSLRARTLTYGVITSLATWSVAVFASLPGFLFSTCYTERNHTYCKTKYSLNSTTWKVLSSLEINILGLVIPLGIMLFCYSMIIRTLQHCKNEKKNKAVKMIFAVVVLFLGFWTPYNIVLFLETLVELEVLQDCTFERYLDYAIQATETLAFVHCCLNPIIYFFLGEKFRKYILQLFKTCRGLFVLCQYCGLLQIYSADTPSSSYTQSTMDHDLHDAL
notes: whole, on cells; Not a complex: two separate receptors on the same cell; also called human CD25+CCR4+ Hut102/6TG; CD25+CCR4+ CTCL Hut102/6TG
Kd: 19.7 nM
